The results in this text go back to the supplement of paper PMC10567573.

B1: PRIM1 (parent)
chain: CCSSADICPKCWTLMTMAIRIIDR
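Further: lentivirally expressed fusions sorted by FACS into six bins by GFP to DsRed ratio, PSI derived from sequencing read proportions per bin multiplied by bin number.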

The series covers variants of B1. Nature of the series: protein stability index of a GFP-peptide fusion (GPS, HEK-293T) (PSI 1-6); higher = more stable. The following applies: c terminus: a fixed tail appended.
In the case of CCSSADICPKCWNLMTMAIRIIDR [T13N], the protein stability index is 1.38.

With CCSSADICPKCWPLMTMAIRIIDR [T13P], the protein stability index amounted to 1.3. With CCSSADICPKCWDLMTMAIRIIDR [T13D] the figure was 1.61. With CCSSADICPKCWGLMTMAIRIIDR [T13G], the protein stability index was 1.91. With CCSSADICPKCWMLMTMAIRIIDR [T13M] the figure was 1.59; with CCSSADICPKCWYLMTMAIRIIDR [T13Y], 2.19. With CCSSADICPKCWILMTMAIRIIDR [T13I] the figure was 2.13.

On to CCSSAMICPKCWTLMTMAIRIIDR [D6M], for which the protein stability index stood at 2.15. With CCSSASICPKCWTLMTMAIRIIDR [D6S] the figure was 1.86. With CCSSAVICPKCWTLMTMAIRIIDR [D6V] the figure was 1.47. With CCSSAQICPKCWTLMTMAIRIIDR [D6Q], the protein stability index amounted to 2.44. Regarding CCSSAEICPKCWTLMTMAIRIIDR [D6E], the protein stability index worked out at 2.22. Under CCSSAKICPKCWTLMTMAIRIIDR [D6K] stands 2.14; under CCSSAFICPKCWTLMTMAIRIIDR [D6F], 2.11. In the case of CCSSADICPKCWTLATMAIRIIDR [M15A], the protein stability index came out at 2.96. Under CCSSADICPKCWTLHTMAIRIIDR [M15H] stands 2.25; under CCSSADICPKCWTLVTMAIRIIDR [M15V], 2.96. With CCSSADICPKCWTLNTMAIRIIDR [M15N] the figure was 2.29. With CCSSADICPKCWTLQTMAIRIIDR [M15Q] the figure was 1.95; with CCSSADICPKCWTLDTMAIRIIDR [M15D], 2.03. In the case of CCSSADICPKCWTLCTMAIRIIDR [M15C], the protein stability index amounted to 1.77. With CCSSADICPKCWTLTTMAIRIIDR [M15T] the figure was 2.34.

For CVSSADICPKCWTLMTMAIRIIDR [C2V], the protein stability index was 2.06. CFSSADICPKCWTLMTMAIRIIDR [C2F]: the protein stability index stood at 1.83. With CMSSADICPKCWTLMTMAIRIIDR [C2M] the figure was 2.48; with CSSSADICPKCWTLMTMAIRIIDR [C2S], 1.96; with CKSSADICPKCWTLMTMAIRIIDR [C2K], 1.45. On to CWSSADICPKCWTLMTMAIRIIDR [C2W], for which the protein stability index worked out at 1.78.

On to CASSADICPKCWTLMTMAIRIIDR [C2A], for which the protein stability index is 2.49.

With CHSSADICPKCWTLMTMAIRIIDR [C2H], the protein stability index was determined as 1.69. Under CLSSADICPKCWTLMTMAIRIIDR [C2L] stands 2.55; under CCSSADICPTCWTLMTMAIRIIDR [K10T], 2.71. Take CCSSADICPQCWTLMTMAIRIIDR [K10Q]: the protein stability index worked out at 1.98. Under CCSSADICPFCWTLMTMAIRIIDR [K10F] stands 1.95. With CCSSADICPYCWTLMTMAIRIIDR [K10Y] the figure was 1.85. Consider CCSSADICPLCWTLMTMAIRIIDR [K10L], for which the protein stability index is 2.14. Under CCSSADICPDCWTLMTMAIRIIDR [K10D] stands 3.36; under CCPSADICPKCWTLMTMAIRIIDR [S3P], 1.28. Under CCFSADICPKCWTLMTMAIRIIDR [S3F] stands 1.51; under CCMSADICPKCWTLMTMAIRIIDR [S3M], 2.7. With CCCSADICPKCWTLMTMAIRIIDR [S3C] the figure was 1.65; with CCESADICPKCWTLMTMAIRIIDR [S3E], 2.04.

On to CCASADICPKCWTLMTMAIRIIDR [S3A], for which the protein stability index was 1.82.

On to CCTSADICPKCWTLMTMAIRIIDR [S3T], for which the protein stability index amounted to 1.53. Under CCNSADICPKCWTLMTMAIRIIDR [S3N] stands 1.95; under CCLSADICPKCWTLMTMAIRIIDR [S3L], 2.32; under CCSSADICPKCWTLMTWAIRIIDR [M17W], 2.19.

Take CCSSADICPKCWTLMTRAIRIIDR [M17R]: the protein stability index amounted to 1.7. With CCSSADICPKCWTLMTKAIRIIDR [M17K] the figure was 2.56; with CCSSADICPKCWTLMTGAIRIIDR [M17G], 1.96; with CCSSADICPKCWTLMTTAIRIIDR [M17T], 2.09. Under CCSSADICPKCWTLMTVAIRIIDR [M17V] stands 1.6. Under CCSSADICPKCWTLMTCAIRIIDR [M17C] stands 1.15. For the variant CCSSADICPKCWTLMTEAIRIIDR [M17E], the protein stability index stood at 2.5. With CCSSADICPKCWTLMTMANRIIDR [I19N] the figure was 2.89; with CCSSADICPKCWTLMTMAKRIIDR [I19K], 2.77; with CCSSADICPKCWTLMTMAGRIIDR [I19G], 2.21. Turning to CCSSADICPKCWTLMTMAFRIIDR [I19F], the protein stability index worked out at 1.57.

CCSSADICPKCWTLMTMATRIIDR [I19T]: the protein stability index was found to be 2.98.

As for CCSSADICPKCWTLMTMAPRIIDR [I19P], the protein stability index was found to be 2.8. Under CCSSADICPKCWTLMTMAMRIIDR [I19M] stands 2.33. With CCSSADICPKCWTLMTMAVRIIDR [I19V] the figure was 2.58; with CCSSADICPKCWTLMTMAQRIIDR [I19Q], 1.81; with CCSSADICPKCWTLMTMAARIIDR [I19A], 1.93. With DCSSADICPKCWTLMTMAIRIIDR [C1D] the figure was 2.01; with SCSSADICPKCWTLMTMAIRIIDR [C1S], 1.79; with RCSSADICPKCWTLMTMAIRIIDR [C1R], 2.01. For the variant GCSSADICPKCWTLMTMAIRIIDR [C1G], the protein stability index was found to be 1.88. Under WCSSADICPKCWTLMTMAIRIIDR [C1W] stands 2.25; under NCSSADICPKCWTLMTMAIRIIDR [C1N], 1.49. With VCSSADICPKCWTLMTMAIRIIDR [C1V] the figure was 2.87; with LCSSADICPKCWTLMTMAIRIIDR [C1L], 2. Under ECSSADICPKCWTLMTMAIRIIDR [C1E] stands 1.6; under HCSSADICPKCWTLMTMAIRIIDR [C1H], 1.87; under CCSSADICPKCWTLMTMAIRIICR [D23C], 2.19. For CCSSADICPKCWTLMTMAIRIISR [D23S], the protein stability index was 2.96. On to CCSSADICPKCWTLMTMAIRIITR [D23T], for which the protein stability index was 1.82. For the variant CCSSADICPKCWTLMTMAIRIIQR [D23Q], the protein stability index was 2.09. For CCSSADICHKCWTLMTMAIRIIDR [P9H], the protein stability index was determined as 2.29. With CCSSADICWKCWTLMTMAIRIIDR [P9W] the figure was 1.35; with CCSSADICSKCWTLMTMAIRIIDR [P9S], 1.96. With CCSSADICGKCWTLMTMAIRIIDR [P9G], the protein stability index amounted to 1.9. Under CCSSADICFKCWTLMTMAIRIIDR [P9F] stands 1.59; under CCSSADICVKCWTLMTMAIRIIDR [P9V], 2.27; under CCSSADICMKCWTLMTMAIRIIDR [P9M], 1.86. Under CCSSADICEKCWTLMTMAIRIIDR [P9E] stands 1.33; under CCSSADICTKCWTLMTMAIRIIDR [P9T], 1.47. Turning to CCSSADILPKCWTLMTMAIRIIDR [C8L], the protein stability index was determined as 3.02. Under CCSSADIQPKCWTLMTMAIRIIDR [C8Q] stands 1.8. For CCSSADIKPKCWTLMTMAIRIIDR [C8K], the protein stability index was 2.95.

With CCSSADIIPKCWTLMTMAIRIIDR [C8I], the protein stability index was 3.3. Under CCSSADIVPKCWTLMTMAIRIIDR [C8V] stands 2.88; under CCSSADICPKCWTLMCMAIRIIDR [T16C], 1.61. Take CCSSADICPKCWTLMHMAIRIIDR [T16H]: the protein stability index is 2.04.
